Results reported in patent US20250152732A1.

Target: target ligand expressed on MutuDC1940 cells
Assay: cell-based or functional assay

## antibody-bound lipid nanoparticle carrying a fragment of the NLDC145 antibody conjugated with the membrane scaffold protein ApoA1 (scFv)
  relative expression level of the Firefly luciferase gene against general lipid nanoparticles, MutuDC1940 cells, 10% FBS, LP ratio 1,000:1 to 100,000:1: 5 to 20 times
  relative expression level of the Firefly luciferase gene against general lipid nanoparticles, MutuDC1940 cells, no serum, LP ratio 500:1 to 10,000:1: 5 to 20 times

## antibody-bound lipid nanoparticle carrying a fragment of the NLDC145 antibody conjugated with the membrane scaffold protein ApoE3 (scFv)
  relative expression level of the Firefly luciferase gene against general lipid nanoparticles, MutuDC1940 cells, 10% FBS, LP ratio 500:1 to 100,000:1: 5 to 20 times
  relative expression level of the Firefly luciferase gene against general lipid nanoparticles, MutuDC1940 cells, no serum, LP ratio 500:1 to 1,000:1: 5 to 20 times

## antibody-bound lipid nanoparticle carrying a fragment of the NLDC145 antibody conjugated with the membrane scaffold protein MSP1E3D1 (scFv)
  relative expression level of the Firefly luciferase gene against general lipid nanoparticles, MutuDC1940 cells, 10% FBS, LP ratio 5,000:1 to 100,000:1: 5 to 20 times
  relative expression level of the Firefly luciferase gene against general lipid nanoparticles, MutuDC1940 cells, no serum, LP ratio 5,000:1 to 10,000:1: 5 to 20 times
